# Measured values published in patent US12697371B2, “Method for preventing, treating or delaying myocardial damage using neuregulin and composition” (ZENSUN (SHANGHAI) SCIENCE & TECHNOLOGY, CO., LTD., priority 2019, dated 2026).
# B1: NRG: fragment of the NRG-1β2 isomer, 177-237 amino acid fragment containing an EGF-like domain (SEQ ID NO: 1); developed by Zensun (protein, listed as Homo sapiens)
# chain: SHLVKCAEKEKTFCVNGGECFMVKDLSNPSRYLCKCPNEFTGDRCQNYVMASFYKAEELYQ
# Tested on: rats with acute myocardial infarction caused by left coronary artery ligation
# Test: Echocardiography, rat acute myocardial infarction, long-term subcutaneous NRG at different frequencies (Example 2)
# Assay type: in vivo, Wistar rats
# Experimental: Established in the same way as the rat model of heart failure caused by coronary artery ligation in 5.1, Embodiment 1
# All the experimental animals were randomly divided into groups upon coronary artery ligation. According to post-ligation survival, the rats were randomly divided into 4 groups by body weight: the excipient group (control group), the NRG30 μg/kgDay group, the NRG30 μg/kg/BlW group and the NRG30 μgkgDay*7+QW group. Administration began on the day following the animal model establishment of myocardial infarction. For the first three groups and for the fourth group on the first 7 days, the rats were given subcutaneous injection 3 times a day and weighed once a day. They took medicine by weight and the dose was 30 μg/kg/day. For the fourth group in the last four weeks, the rats were injected with NRG on one day per week, and the daily dose was 30 μg/kg.
# After being anesthetized with 4% isoflurane, the rats were fixed onto the operating board in the left lateral recumbent position. The head of the rats was fixed in the breathing mask of the gaseous anesthesia machine, with isoflurane used for maintenance of anesthesia. After chest hair removal, the skin was disinfected with 75% alcohol and coated with a coupling agent. An echocardiography probe was used to detect any echo signal from the left ventricle of the rats. The left ventricular end-diastolic diameter and left ventricular end-systolic diameter (D) were measured. The left ventricular end-diastolic volume (EDV) and end-systolic volume (ESV) were calculated. Also, the ejection fraction (EF) value was found, […]. The cardiac function of the rats was performed by echocardiography in the 1st, 2nd, 3rd and 5th weeks after the occurrence of myocardial infarction.
# [1] = 30 μg/kg/Day sc, after 35 days of continuous administration
# [2] = DAY 8, 30 μg/kg BIW sc, 3 times a day, 2 days a week × 5 weeks
# [3] = DAY 8, 30 μg/kg Day*7 + QW sc, 3 times a day × 7 days, then 1 day/week × 4 weeks
# [4] = DAY 8, 30 μg/kg/Day sc, 3 times a day × 35 days
# [5] = DAY 15, 30 μg/kg BIW sc, 3 times a day, 2 days a week × 5 weeks
# [6] = DAY 15, 30 μg/kg Day*7 + QW sc, 3 times a day × 7 days, then 1 day/week × 4 weeks
# [7] = DAY 15, 30 μg/kg/Day sc, 3 times a day × 35 days
# [8] = DAY 22, 30 μg/kg BIW sc, 3 times a day, 2 days a week × 5 weeks
# [9] = DAY 22, 30 μg/kg Day*7 + QW sc, 3 times a day × 7 days, then 1 day/week × 4 weeks
# [10] = DAY 22, 30 μg/kg/Day sc, 3 times a day × 35 days
# [11] = DAY 36, 30 μg/kg BIW sc, 3 times a day, 2 days a week × 5 weeks
# [12] = DAY 36, 30 μg/kg Day*7 + QW sc, 3 times a day × 7 days, then 1 day/week × 4 weeks
# [13] = DAY 36, 30 μg/kg/Day sc, 3 times a day × 35 days
molecule,measurement,setting,value
B1,EF value compared with the control group,"30 μg/kg/BIW sc, after 35 days",rising trend
same,EF value compared with the control group,[1],significantly higher
same,LVEDd and LVEDs compared with the control group,[1],significantly reduce
same,Cardiac function compared with the control group,"30 μg/kg/Day*7+QW sc, first 7 days of continuous administration",improved to some extent
same,EF,[2],50.9 ± 8.958%
same,LVEDd,[2],0.809 ± 0.045 cm
same,LVEDs,[2],0.625 ± 0.068 cm
same,EF,[3],50.9 ± 7.337%
same,LVEDd,[3],0.785 ± 0.045 cm
same,LVEDs,[3],0.607 ± 0.061 cm
same,EF,[4],52.2 ± 7.802%
same,LVEDd,[4],0.785 ± 0.046 cm
same,LVEDs,[4],0.601 ± 0.063 cm
same,EF,[5],48.9 ± 9.893%
same,LVEDd,[5],0.856 ± 0.065 cm
same,LVEDs,[5],0.671 ± 0.091 cm
same,EF,[6],47.1 ± 8.344%
same,LVEDd,[6],0.864 ± 0.054 cm
same,LVEDs,[6],0.686 ± 0.074 cm
same,EF,[7],50.3 ± 8.49%
same,LVEDd,[7],0.832 ± 0.054 cm
same,LVEDs,[7],0.646 ± 0.075 cm
same,EF,[8],47.1 ± 10.427%
same,LVEDd,[8],0.896 ± 0.074 cm
same,LVEDs,[8],0.711 ± 0.102 cm
same,EF,[9],44.7 ± 8.434%
same,LVEDd,[9],0.905 ± 0.062 cm
same,LVEDs,[9],0.729 ± 0.08 cm
same,EF,[10],49.5 ± 7.897%
same,LVEDd,[10],0.859 ± 0.057 cm
same,LVEDs,[10],0.670 ± 0.069 cm
same,EF,[11],45.2 ± 10.248%
same,LVEDd,[11],0.928±0.084 cm
same,LVEDs,[11],0.746 ± 0.110 cm
same,EF,[12],42.7±9.892%
same,LVEDd,[12],0.931±0.070 cm
same,LVEDs,[12],0.76 ± 0.097 cm
same,EF,[13],47.9±8.342%
same,LVEDd,[13],0.879±0.058 cm
same,LVEDs,[13],0.694±0.077 cm
